The text below walks through data of paper PMC9482650, “Quantitative fragmentomics allow affinity mapping of interactomes” (Nature Communications, 2022).

Common to all, as to assay: holdup assay
Set-up in all cases: key: below the threshold = too weak to quantify, mostly under pKd 3.1 to 4

Experiment [1] deals with T1, APBA1_1, Q02410.
T1 sequence (Q02410 651-752, limits assumed, looked up): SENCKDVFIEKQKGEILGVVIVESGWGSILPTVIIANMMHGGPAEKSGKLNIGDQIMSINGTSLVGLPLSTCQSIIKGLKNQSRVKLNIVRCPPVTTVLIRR

Experiment [2] concerns the target T2, APBA2_1, Q99767.
T2 sequence (Q99767 563-664, limits assumed, looked up): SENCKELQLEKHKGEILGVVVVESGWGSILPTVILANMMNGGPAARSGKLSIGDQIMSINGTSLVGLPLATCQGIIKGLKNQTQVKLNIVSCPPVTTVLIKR

Experiment [3] concerns the target T3, APBA2_2, Q99767.
T3 sequence (Q99767 654-744, limits assumed, looked up): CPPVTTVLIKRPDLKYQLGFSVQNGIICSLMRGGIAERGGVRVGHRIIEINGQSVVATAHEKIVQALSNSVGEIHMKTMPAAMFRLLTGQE

In experiment [4] the target is T4, DFNB31_3, Q9P202.
T4 sequence (Q9P202 811-907, limits assumed, looked up): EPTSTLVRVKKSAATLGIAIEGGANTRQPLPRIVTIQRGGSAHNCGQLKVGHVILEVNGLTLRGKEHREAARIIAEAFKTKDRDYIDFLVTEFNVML

The target of experiment [5] is DLG1_1, Q12959.
In experiment [6] the target is DLG1_3, Q12959.
The target in experiment [7] is DLG4_1, P78352.
Experiment [8] concerns the target T5, GRIP1_2, Q9Y3R0.
T5 sequence (Q9Y3R0 145-248, limits assumed, looked up): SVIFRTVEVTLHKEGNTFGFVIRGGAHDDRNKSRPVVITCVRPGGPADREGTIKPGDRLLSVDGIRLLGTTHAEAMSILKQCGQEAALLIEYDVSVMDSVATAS

Experiment [9] addresses T6, GRIP1_3, Q9Y3R0.
T6 sequence (Q9Y3R0 247-346, limits assumed, looked up): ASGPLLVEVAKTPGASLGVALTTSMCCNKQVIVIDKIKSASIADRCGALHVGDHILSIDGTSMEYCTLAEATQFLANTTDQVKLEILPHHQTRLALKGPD

Experiment [10] has as its target T7, HTRA4, P83105.
T7 sequence (P83105 378-476, limits assumed, looked up): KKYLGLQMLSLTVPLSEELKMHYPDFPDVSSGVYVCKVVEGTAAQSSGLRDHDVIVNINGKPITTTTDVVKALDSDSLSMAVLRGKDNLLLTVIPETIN

Experiment [11] has as its target Inadl_3, Q8NI35.
Experiment [12] addresses Inadl_4, Q8NI35.
Experiment [13] has as its target Inadl_9, Q8NI35.
For experiment [14], the target named is T8, LIN7C, Q9NUP9.
T8 sequence (Q9NUP9 88-185, limits assumed, looked up): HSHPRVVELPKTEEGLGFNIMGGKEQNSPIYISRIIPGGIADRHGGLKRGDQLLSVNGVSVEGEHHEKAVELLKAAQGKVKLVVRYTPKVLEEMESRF

The target of experiment [15] is MAGI1_2, Q96QZ7.
The target of experiment [16] is MAGI2_5, Q86UL8.
Experiment [17] deals with T9, PDZD7_3, Q9H5P4.
T9 sequence (Q9H5P4 857-944, limits assumed, looked up): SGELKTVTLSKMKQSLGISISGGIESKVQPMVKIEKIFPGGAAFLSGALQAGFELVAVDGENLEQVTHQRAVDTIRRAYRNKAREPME

Experiment [18] deals with T10, RAPGEF6, Q8TEU7.
T10 sequence (Q8TEU7 525-625, limits assumed, looked up): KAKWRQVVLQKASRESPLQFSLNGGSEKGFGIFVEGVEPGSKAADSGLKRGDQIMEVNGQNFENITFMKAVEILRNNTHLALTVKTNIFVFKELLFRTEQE

Experiment [19] concerns the target T11, SNTA1, Q13424.
T11 sequence (Q13424 82-180, limits assumed, looked up): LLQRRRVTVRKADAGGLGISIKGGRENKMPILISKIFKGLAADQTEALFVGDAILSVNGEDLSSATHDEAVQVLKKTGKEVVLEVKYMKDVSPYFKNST

In experiment [20] the target is T12, SYNJ2BP, P57105.
T12 sequence (P57105 8-110, limits assumed, looked up): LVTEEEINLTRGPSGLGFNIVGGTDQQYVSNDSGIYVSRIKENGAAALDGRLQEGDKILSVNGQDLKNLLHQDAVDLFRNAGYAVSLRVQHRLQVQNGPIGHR

Experiment [21] deals with T13, TIAM2, Q8IVF5.
T13 sequence (Q8IVF5 885-986, limits assumed, looked up): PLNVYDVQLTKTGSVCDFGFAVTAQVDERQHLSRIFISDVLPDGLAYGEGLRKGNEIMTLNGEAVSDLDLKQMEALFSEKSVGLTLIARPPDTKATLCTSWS

In experiment [22] the target is T14, TX1BP3, O14907.
T14 sequence (O14907 10-122, limits assumed, looked up): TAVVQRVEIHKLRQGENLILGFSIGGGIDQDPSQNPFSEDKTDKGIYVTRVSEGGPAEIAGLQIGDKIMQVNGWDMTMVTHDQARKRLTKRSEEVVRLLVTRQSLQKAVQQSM

Where [23] appears, read: plain residues with an end cap or a label only (N-terminal biotin on a linker: ado-ado).
Setting [24] is: plain residues with an end cap or a label only (N-terminal biotin on a linker: ttds).

Sequence of MAGI1_2, Q96QZ7 (Q96QZ7 456-580): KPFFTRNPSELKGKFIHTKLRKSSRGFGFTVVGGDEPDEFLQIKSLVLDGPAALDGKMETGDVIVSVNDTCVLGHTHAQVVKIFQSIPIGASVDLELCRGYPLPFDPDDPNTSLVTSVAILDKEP
Sequence of Inadl_3, Q8NI35 (Q8NI35 359-469): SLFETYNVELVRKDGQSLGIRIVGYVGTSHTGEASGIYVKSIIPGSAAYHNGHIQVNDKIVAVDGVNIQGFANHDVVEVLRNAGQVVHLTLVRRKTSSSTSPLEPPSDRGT
Sequence of DLG4_1, P78352 (P78352 62-152): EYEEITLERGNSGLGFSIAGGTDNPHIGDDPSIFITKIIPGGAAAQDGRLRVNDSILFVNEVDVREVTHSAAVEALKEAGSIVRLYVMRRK
Sequence of Inadl_4, Q8NI35 (Q8NI35 547-651): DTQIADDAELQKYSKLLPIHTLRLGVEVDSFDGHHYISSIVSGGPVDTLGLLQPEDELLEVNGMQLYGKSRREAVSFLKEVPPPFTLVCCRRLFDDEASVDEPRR
Sequence of Inadl_9, Q8NI35 (Q8NI35 1530-1615): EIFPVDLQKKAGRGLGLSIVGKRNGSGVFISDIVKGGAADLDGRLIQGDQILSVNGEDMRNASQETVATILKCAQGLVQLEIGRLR
Sequence of MAGI2_5, Q86UL8 (Q86UL8 915-1017): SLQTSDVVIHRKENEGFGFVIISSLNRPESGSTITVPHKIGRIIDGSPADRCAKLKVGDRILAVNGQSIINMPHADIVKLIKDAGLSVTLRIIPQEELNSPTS

Broadly, the pKd is −log10 of the Kd, conventionally taken in molar units. For GFGEERESIL [KIDINS220, Q9ULH0], the pKd entry in experiment [1] (setting [23]), in experiment [2] (setting [23]), in experiment [3] (setting [23]), in experiment [4] (setting [23]), in [5] (setting [23]) and in experiment [6] (setting [23]) was “below the threshold” in each case. The negative-log Kd (pKd) result in [7] (setting [23]) is “below the threshold”; in [8] (setting [23]) it was “below the threshold”; in experiment [9] (setting [23]), “below the threshold”; in experiment [10] (setting [23]), “below the threshold”; in experiment [11] (setting [23]), 3.65; in experiment [12] (setting [23]) it was “below the threshold”. The negative-log Kd (pKd) entry in [13] (setting [23]) is “below the threshold”; in [14] (setting [23]), 3.63; in experiment [15] (setting [23]), “below the threshold”; in [16] (setting [23]), 4.08; in experiment [17] (setting [23]) it was 5.03; in experiment [18] (setting [23]), “below the threshold”. In addition, the pKd is 5.26 in [19] (setting [23]), 3.95 in [20] (setting [23]), “below the threshold” in [21] (setting [23]) and 3.73 in experiment [22] (setting [23]).
Regarding NYWPGKETQL [SLCO1C1, Q9NYB5], the pKd result in experiment [1] (setting [24]) was “below the threshold”; in experiment [2] (setting [24]) it was “below the threshold”; in [3] (setting [24]), “below the threshold”; in [4] (setting [24]) it was “below the threshold”; in experiment [5] (setting [24]), 4.74; in experiment [6] (setting [24]) it was 5.02. For the same molecule, the pKd in experiment [7] (setting [24]) was 4.29; in experiment [8] (setting [24]) it was “below the threshold”; in experiment [9] (setting [24]), “below the threshold”; in experiment [10] (setting [24]), “below the threshold”; in [11] (setting [24]) it was “below the threshold”; in experiment [12] (setting [24]), “below the threshold”. Moreover, the negative-log Kd (pKd) entry was “below the threshold” in experiment [13] (setting [24]); 4.93 in experiment [14] (setting [24]); 4.15 in experiment [15] (setting [24]); 3.87 in experiment [16] (setting [24]); 4.62 in experiment [17] (setting [24]); “below the threshold” in [18] (setting [24]). In addition, the pKd was 5.51 in experiment [19] (setting [24]), 5.4 in [20] (setting [24]), “below the threshold” in experiment [21] (setting [24]) and 5.47 in experiment [22] (setting [24]).
As to EDLTKNHDEL [RCN1, Q15293], the negative-log Kd (pKd) entry in [1] (setting [23]) is “below the threshold”; in experiment [2] (setting [23]), 3.49; in [3] (setting [23]), “below the threshold”; in experiment [4] (setting [23]) it was “below the threshold”; in [5] (setting [23]), “below the threshold”; in [6] (setting [23]), 3.8. Besides, the pKd in [7] (setting [23]) is 3.57; in [8] (setting [23]), “below the threshold”; in [9] (setting [23]) it was “below the threshold”; in experiment [10] (setting [23]), “below the threshold”; in experiment [11] (setting [23]), “below the threshold”; in experiment [12] (setting [23]) it was “below the threshold”. The pKd result in experiment [13] (setting [23]), in experiment [14] (setting [23]), in experiment [15] (setting [23]), in [16] (setting [23]), in experiment [17] (setting [23]) and in experiment [18] (setting [23]) was “below the threshold” throughout. For the same molecule, the pKd in [19] (setting [23]) is 3.5; in [20] (setting [23]), “below the threshold”; in experiment [21] (setting [23]) it was “below the threshold”; in experiment [22] (setting [23]), “below the threshold”.
For PKRPFVESNV [TANC2, Q9HCD6], the pKd entry in experiment [1] (setting [24]) was “below the threshold”; in experiment [2] (setting [24]), “below the threshold”; in [3] (setting [24]), “below the threshold”; in [4] (setting [24]) it was “below the threshold”; in experiment [5] (setting [24]), 4.31; in experiment [6] (setting [24]), 3.77. Also, the negative logarithm of the Kd (pKd) in experiment [7] (setting [24]) is 4.32; in [8] (setting [24]), “below the threshold”; in [9] (setting [24]), “below the threshold”; in [10] (setting [24]), “below the threshold”; in [11] (setting [24]), “below the threshold”; in experiment [12] (setting [24]), “below the threshold”. Besides, the negative logarithm of the Kd (pKd) entry is “below the threshold” in [13] (setting [24]); “below the threshold” in experiment [14] (setting [24]); “below the threshold” in [15] (setting [24]); 3.7 in experiment [16] (setting [24]); “below the threshold” in [17] (setting [24]); “below the threshold” in [18] (setting [24]). Moreover, the pKd in experiment [19] (setting [24]) is 4.33; in experiment [20] (setting [24]) it was 5.08; in experiment [21] (setting [24]) it was “below the threshold”; in experiment [22] (setting [24]) it was 5.9.
For the molecule LDSQIQETSI [MAP4, P27816], the pKd result in [1] (setting [24]) is “below the threshold”; in experiment [2] (setting [24]) it was “below the threshold”; in experiment [3] (setting [24]), “below the threshold”; in experiment [4] (setting [24]), “below the threshold”; in [5] (setting [24]), 3.64; in experiment [6] (setting [24]), 4.06. In addition, the negative-log Kd (pKd) in experiment [7] (setting [24]) was 3.5; in experiment [8] (setting [24]) it was “below the threshold”; in [9] (setting [24]) it was “below the threshold”; in experiment [10] (setting [24]), “below the threshold”; in experiment [11] (setting [24]), “below the threshold”; in experiment [12] (setting [24]) it was “below the threshold”. The negative logarithm of the Kd (pKd) entry in [13] (setting [24]) is “below the threshold”; in experiment [14] (setting [24]), 3.68; in experiment [15] (setting [24]) it was “below the threshold”; in experiment [16] (setting [24]), 3.5; in experiment [17] (setting [24]), 5.63; in [18] (setting [24]), “below the threshold”. Besides, the pKd in [19] (setting [24]) was 4.8; in experiment [20] (setting [24]), 4.95; in experiment [21] (setting [24]), “below the threshold”; in experiment [22] (setting [24]) it was 3.96.
